± gives the uncertainty stated by the source.
B1: GA-binding protein alpha chain, residues 172 to 250; numbered along this chain, Q06546 (parent)
chain: GYRKEQERLGIPYDPIQWSTDQVLHWVVWVMKEFSMTDIDLTTLNISGRELCSLNQEDFFQRVPRGEILWSHLELLRKY

Variants of: B1
Experiment: abundance fitness (aPCA) (normalised: wild type 0, dead -1); higher = more abundant; growth selection in yeast, the domain comes from the species named
Details: Homo sapiens

Row | Variant | abundance fitness
1 | L41E | -0.153 ± 0.059
2 | L41V | -0.024 ± 0.038
3 | L41Y | -0.025 ± 0.1
4 | L41I | 0.006 ± 0.077
5 | L41M | -0.008 ± 0.055
6 | L41H | -0.063 ± 0.068
7 | L41D | -0.386 ± 0.095
8 | L41P | -0.028 ± 0.038
9 | L41N | -0.258 ± 0.088
10 | L41W | -0.132 ± 0.048
11 | L41S | -0.127 ± 0.042
12 | L41T | -0.061 ± 0.057
13 | L41A | -0.049 ± 0.047
14 | L41R | -0.191 ± 0.033
15 | L41Q | -0.117 ± 0.056
16 | L41G | -0.134 ± 0.033
17 | L41F | -0.094 ± 0.059
18 | L41C | -0.056 ± 0.055
19 | T42D | -0.011 ± 0.069
20 | T42S | -0.011 ± 0.034
21 | T42N | -0.083 ± 0.12
22 | T42P | -0.106 ± 0.037
23 | T42K | -0.131 ± 0.067
24 | T42A | -0.004 ± 0.04

Row | Variant | abundance fitness
25 | T42I | -0.181 ± 0.063
26 | T42V | -0.122 ± 0.041
27 | T42Y | -0.1 ± 0.083
28 | T42L | -0.162 ± 0.035
29 | T42C | -0.051 ± 0.047
30 | T42H | -0.075 ± 0.06
31 | T42Q | -0.032 ± 0.054
32 | T42R | -0.014 ± 0.031
33 | T42F | -0.215 ± 0.058
34 | D38A | -0.154 ± 0.041
35 | D38H | -0.055 ± 0.07
36 | D38N | -0.082 ± 0.072
37 | D38I | -0.626 ± 0.14
38 | D38G | -0.031 ± 0.035
39 | D38R | -0.168 ± 0.031
40 | D38W | -0.149 ± 0.041
41 | D38V | -0.364 ± 0.046
42 | D38Q | -0.099 ± 0.077
43 | D38S | -0.063 ± 0.039
44 | D38Y | -0.261 ± 0.055
45 | D38K | -0.091 ± 0.057
46 | D38T | -0.08 ± 0.06
47 | D38P | -0.009 ± 0.037
48 | D38M | -0.364 ± 0.078

Row | Variant | abundance fitness
49 | D38F | -0.492 ± 0.085
50 | D38E | 0.03 ± 0.066
51 | T43W | -0.123 ± 0.048
52 | T43Y | -0.005 ± 0.1
53 | T43F | -0.299 ± 0.15
54 | T43K | 0.102 ± 0.072
55 | T43S | 0.014 ± 0.038
56 | T43P | 0.013 ± 0.041
57 | T43M | -0.043 ± 0.075
58 | T43D | 0.034 ± 0.081
59 | T43Q | -0.016 ± 0.055
60 | T43V | -0.065 ± 0.041
61 | T43H | -0.149 ± 0.075
62 | T43R | -0.027 ± 0.029
63 | T43I | -0.202 ± 0.074
64 | T43C | 0.013 ± 0.066
65 | T43N | -0.037 ± 0.053
66 | T43A | 0 ± 0.041
67 | I39D | -0.288 ± 0.12
68 | I39M | -0.021 ± 0.064
69 | I39S | -0.275 ± 0.042
70 | I39Y | -0.317 ± 0.1
71 | I39F | -0.011 ± 0.098
72 | I39T | -0.035 ± 0.057

Row | Variant | abundance fitness
73 | I39N | -0.07 ± 0.091
74 | I39G | -0.185 ± 0.036
75 | I39W | -0.145 ± 0.028
76 | I39A | -0.192 ± 0.046
77 | I39R | -0.281 ± 0.032
78 | I39K | -0.244 ± 0.093
79 | I39E | -0.118 ± 0.077
80 | I39V | 0.037 ± 0.034
81 | I39Q | -0.22 ± 0.06
82 | I39C | -0.042 ± 0.062
83 | I39P | -0.17 ± 0.045
84 | I39H | -0.06 ± 0.076
85 | D40H | -0.223 ± 0.096
86 | D40V | -0.44 ± 0.039
87 | D40C | -0.281 ± 0.07
88 | D40P | -0.111 ± 0.049
89 | D40I | -0.533 ± 0.1
90 | D40M | -0.543 ± 0.058
91 | D40W | -0.989 ± 0.12
92 | D40Q | -0.268 ± 0.082
93 | D40T | -0.263 ± 0.059
94 | D40R | -0.292 ± 0.032
95 | D40Y | -0.698 ± 0.18
96 | D40A | -0.226 ± 0.037

Row | Variant | abundance fitness
97 | D40K | -0.23 ± 0.066
98 | D40N | -0.043 ± 0.075
99 | D40S | -0.124 ± 0.032
100 | D40G | -0.239 ± 0.042
101 | D40E | -0.112 ± 0.05
102 | N45H | 0.015 ± 0.068
103 | N45M | -0.054 ± 0.078
104 | N45T | -0.01 ± 0.046
105 | N45P | -0.373 ± 0.04
106 | N45K | 0.032 ± 0.071
107 | N45L | -0.195 ± 0.037
108 | N45W | -0.276 ± 0.045
109 | N45A | 0.003 ± 0.044
110 | N45V | -0.122 ± 0.039
111 | N45Q | -0.086 ± 0.062
112 | N45S | -0.019 ± 0.033
113 | N45D | -0.148 ± 0.089
114 | N45R | -0.038 ± 0.032
115 | N45Y | -0.191 ± 0.086
116 | N45C | -0.063 ± 0.066
117 | N45E | -0.039 ± 0.047
118 | N45F | -0.348 ± 0.11
119 | N45I | -0.251 ± 0.13
120 | L44Q | -1.09 ± 0.21

Row | Variant | abundance fitness
121 | L44D | -0.945 ± 0.33
122 | L44G | -0.711 ± 0.067
123 | L44V | -0.193 ± 0.046
124 | L44C | -0.282 ± 0.063
125 | L44A | -0.715 ± 0.066
126 | L44E | -0.876 ± 0.14
127 | L44H | -0.825 ± 0.2
128 | L44S | -0.745 ± 0.079
129 | L44P | -0.865 ± 0.055
130 | L44F | -0.108 ± 0.054
131 | L44K | -0.862 ± 0.16
132 | L44R | -0.989 ± 0.095
133 | L44M | -0.019 ± 0.057
134 | T37S | -0.07 ± 0.037
135 | T37I | -0.256 ± 0.071
136 | T37C | -0.044 ± 0.052
137 | T37P | 0.014 ± 0.035
138 | T37N | -0.027 ± 0.074
139 | T37Q | -0.009 ± 0.05
140 | T37V | -0.1 ± 0.041
141 | T37D | -0.22 ± 0.32
142 | T37K | 0.039 ± 0.056
143 | T37G | -0.004 ± 0.038
144 | T37M | -0.028 ± 0.053

Row | Variant | abundance fitness
145 | T37W | -0.115 ± 0.045
146 | T37F | -0.019 ± 0.05
147 | T37A | -0.03 ± 0.065
148 | T37R | -0.033 ± 0.034
149 | T37H | -0.037 ± 0.088
150 | T37E | 0.017 ± 0.057
151 | I46P | -1 ± 0.12
152 | I46E | -0.939 ± 0.22
153 | I46V | -0.109 ± 0.043
154 | I46S | -1 ± 0.096
155 | I46N | -0.644 ± 0.27
156 | I46F | -0.237 ± 0.1
157 | I46H | -0.874 ± 0.35
158 | I46K | -0.835 ± 0.24
159 | I46L | -0.034 ± 0.042
160 | I46T | -0.654 ± 0.078
161 | I46M | 0.069 ± 0.06
162 | I46R | -0.909 ± 0.09
163 | I46Q | -0.828 ± 0.16
164 | I46A | -0.584 ± 0.054
165 | I46G | -0.796 ± 0.073
166 | I46W | -0.257 ± 0.043
167 | I46C | -0.17 ± 0.06

— the Human Domainome abundance scans (Beltran et al. 2025)
